Data published in publication PMC8487046.

Target: acetylated BSA (AcBSA) (bovine (from the name BSA)) (UniProt P02769)
Assay: SPR; AcBSA immobilized (900 RU, CM5, amine coupling; BSA as reference surface), serially diluted SREC-II(44-442) or SR-F1(20-421) injected; TBS-Ca-P; 20 µL/min; 25 °C; global fit, 1:1 Langmuir model; apparent KD

Kd: 790 nM
koff: 0.0015 s⁻¹
kon: 2000 M⁻¹ s⁻¹
B1: SR‐F1(20‐421), SR‐F1 ectodomain (domain or fragment)
chain: SELDPKGQHVCVASSPSAELQCCAGWRQKDQECTIPICEGPDACQKDEVCVKPGLCRCKPGFFGAHCSSRCPGQYWGPDCRESCPCHPHGQCEPATGACQCQADRWGARCEFPCACGPHGRCDPATGVCHCEPGWWSSTCRRPCQCNTAAARCEQATGACVCKPGWWGRRCSFRCNCHGSPCEQDSGRCACRPGWWGPECQQQCECVRGRCSAASGECTCPPGFRGARCELPCPAGSHGVQCAHSCGRCKHNEPCSPDTGSCESCEPGWNGTQCQQPCLPGTFGESCEQQCPHCRHGEACEPDTGHCQRCDPGWLGPRCEDPCPTGTFGEDCGSTCPTCVQGSCDTVTGDCVCSAGYWGPSCNASCPAGFHGNNCSVPCECPEGLCHPVSGSCQPGSGSRDT
